Reference: patent US12545899B2, “Luciferase enzymes for use with thermostable luciferins in bioluminescent assays” (Promega Corporation, priority 2018, dated 2026)

Experiment: Luminescence of ATG-3707 variants (second round epPCR) with CS0333
Type: biochemical
Conditions: for Luminescence (RLU) BrightGlo / Normalized Luminescence BrightGlo: BrightGlo buffer; for Luminescence (RLU) BrightGlo / Luminescence (RLU) CellTiterGlo / Luminescence (RLU) Detection Reagent: 25° C., 3 min; for Normalized Luminescence BrightGlo / Normalized Luminescence CellTiterGlo / Normalized Luminescence Detection Reagent: normalized to ATG-3707; for Luminescence (RLU) CellTiterGlo / Normalized Luminescence CellTiterGlo: CellTiterGlo buffer; for Luminescence (RLU) Detection Reagent / Normalized Luminescence Detection Reagent: Detection Reagent buffer
Description: Reagent compositions included CS0333 diluted from 20 mM to 2 mM in reaction buffer with 2 mM ATP. […] Reactions were incubated at 25° C. for 3 min, and luminescence was read and then normalized to ATG-3707 activity tested in parallel.

| Molecule | Luminescence (RLU) BrightGlo [RLU] | Normalized Luminescence BrightGlo | Luminescence (RLU) CellTiterGlo [RLU] | Normalized Luminescence CellTiterGlo | Luminescence (RLU) Detection Reagent [RLU] | Normalized Luminescence Detection Reagent |
| --- | --- | --- | --- | --- | --- | --- |
| C2158H1: SEQ ID NO: 44; H244W+T344A+I396K+S193A+N228D+L305F+S306P+I109V+I230F (protein) MADKNILYGPEPFYPLEDGTAGEQMFDALSRYAAIPGCIALTNAHTKENVLYEEFLKLSCRLAESFKKYGLKQNDTIAVCSENSLQFFLPVIASLYLGIIVAPVNDKYVERELIHSLGIVKPRIVFCSKNTFQKVLNVKSKLKSIETIIILDLNEDLGGYQCLNNFISQNSDSNLDVKKFKPYSFNRDDQVAAIMFSSGTTGLPKGVMLTHKNIVARFSIAKDPTFGDAFNPTSAILTVIPFHWGFGMMTTLGYFTCGFRVVLMHTFEEKLFLQSLQDYKVESTLLVPTLMAFLAKSALVEKYDFPHLKEIASGGAPLSKEIGEMVKKRFKLNFVRQGYGLTEATSAVLITPKGDAKPGSTGKIVPLHAVKVVDPTTGKILGPNEPGELYFKGPMKMKGYYNNEEATKAIIDNDGWLRSGDIAYYDNDGHFYIVDRLKSLIKYKGYQVAPAEIEGILLQHPYIVDAGVTGIPDEAAGELPAAGVVVQTGKYLNEQIVQDYVASQVSTAKWLRGGVKFLDEIPKGSTGKIDRKVLRQMLEKHTNGHHHHHHHH | 3760160 | 0.97 | 778990 | 1.21 | 6098750 | 1.18 |
| C2158H3: SEQ ID NO: 46; H244W+T344A+I396K+S193A+N228D+L305F+S306P+I109V+N154S+V261A+I410M (protein) MADKNILYGPEPFYPLEDGTAGEQMFDALSRYAAIPGCIALTNAHTKENVLYEEFLKLSCRLAESFKKYGLKQNDTIAVCSENSLQFFLPVIASLYLGIIVAPVNDKYVERELIHSLGIVKPRIVFCSKNTFQKVLNVKSKLKSIETIIILDLSEDLGGYQCLNNFISQNSDSNLDVKKFKPYSFNRDDQVAAIMFSSGTTGLPKGVMLTHKNIVARFSIAKDPTFGDAINPTSAILTVIPFHWGFGMMTTLGYFTCGFRAVLMHTFEEKLFLQSLQDYKVESTLLVPTLMAFLAKSALVEKYDFPHLKEIASGGAPLSKEIGEMVKKRFKLNFVRQGYGLTEATSAVLITPKGDAKPGSTGKIVPLHAVKVVDPTTGKILGPNEPGELYFKGPMKMKGYYNNEEATKAMIDNDGWLRSGDIAYYDNDGHFYIVDRLKSLIKYKGYQVAPAEIEGILLQHPYIVDAGVTGIPDEAAGELPAAGVVVQTGKYLNEQIVQDYVASQVSTAKWLRGGVKFLDEIPKGSTGKIDRKVLRQMLEKHTNGHHHHHHHH | 3892740 | 1.00 | 648483 | 1.01 | 5916440 | 1.15 |
| C2262C2: SEQ ID NO: 47; H244W+T344A+I396K+S193A+N228D+L305F+S306P+I109V+Y183C+V261A+T289S (protein) MADKNILYGPEPFYPLEDGTAGEQMFDALSRYAAIPGCIALTNAHTKENVLYEEFLKLSCRLAESFKKYGLKQNDTIAVCSENSLQFFLPVIASLYLGIIVAPVNDKYVERELIHSLGIVKPRIVFCSKNTFQKVLNVKSKLKSIETIIILDLNEDLGGYQCLNNFISQNSDSNLDVKKFKPCSFNRDDQVAAIMFSSGTTGLPKGVMLTHKNIVARFSIAKDPTFGDAINPTSAILTVIPFHWGFGMMTTLGYFTCGFRAVLMHTFEEKLFLQSLQDYKVESTLLVPSLMAFLAKSALVEKYDFPHLKEIASGGAPLSKEIGEMVKKRFKLNFVRQGYGLTEATSAVLITPKGDAKPGSTGKIVPLHAVKVVDPTTGKILGPNEPGELYFKGPMKMKGYYNNEEATKAIIDNDGWLRSGDIAYYDNDGHFYIVDRLKSLIKYKGYQVAPAEIEGILLQHPYIVDAGVTGIPDEAAGELPAAGVVVQTGKYLNEQIVQDYVASQVSTAKWLRGGVKFLDEIPKGSTGKIDRKVLRQMLEKHTNGHHHHHHHH | 3874490 | 1.00 | 738328 | 1.15 | 5661740 | 1.10 |
| C2159F8: SEQ ID NO: 48; H244W+T344A+I396K+S193A+N228D+L305F+S306P+I109V+Y32C (protein) MADKNILYGPEPFYPLEDGTAGEQMFDALSRCAAIPGCIALTNAHTKENVLYEEFLKLSCRLAESFKKYGLKQNDTIAVCSENSLQFFLPVIASLYLGIIVAPVNDKYVERELIHSLGIVKPRIVFCSKNTFQKVLNVKSKLKSIETIIILDLNEDLGGYQCLNNFISQNSDSNLDVKKFKPYSFNRDDQVAAIMFSSGTTGLPKGVMLTHKNIVARFSIAKDPTFGDAINPTSAILTVIPFHWGFGMMTTLGYFTCGFRVVLMHTFEEKLFLQSLQDYKVESTLLVPTLMAFLAKSALVEKYDFPHLKEIASGGAPLSKEIGEMVKKRFKLNFVRQGYGLTEATSAVLITPKGDAKPGSTGKIVPLHAVKVVDPTTGKILGPNEPGELYFKGPMKMKGYYNNEEATKAIIDNDGWLRSGDIAYYDNDGHFYIVDRLKSLIKYKGYQVAPAEIEGILLQHPYIVDAGVTGIPDEAAGELPAAGVVVQTGKYLNEQIVQDYVASQVSTAKWLRGGVKFLDEIPKGSTGKIDRKVLRQMLEKHTNGHHHHHHHH | 4599710 | 1.18 | 650068 | 1.01 | 5611680 | 1.09 |
| C2149A12: SEQ ID NO: 49; H244W+T344A+I396K+S193A+N228D+L305F+S306P+I109V+F246Y+V261A (protein) MADKNILYGPEPFYPLEDGTAGEQMFDALSRYAAIPGCIALTNAHTKENVLYEEFLKLSCRLAESFKKYGLKQNDTIAVCSENSLQFFLPVIASLYLGIIVAPVNDKYVERELIHSLGIVKPRIVFCSKNTFQKVLNVKSKLKSIETIIILDLNEDLGGYQCLNNFISQNSDSNLDVKKFKPYSFNRDDQVAAIMFSSGTTGLPKGVMLTHKNIVARFSIAKDPTFGDAINPTSAILTVIPFHWGYGMMTTLGYFTCGFRAVLMHTFEEKLFLQSLQDYKVESTLLVPTLMAFLAKSALVEKYDFPHLKEIASGGAPLSKEIGEMVKKRFKLNFVRQGYGLTEATSAVLITPKGDAKPGSTGKIVPLHAVKVVDPTTGKILGPNEPGELYFKGPMKMKGYYNNEEATKAIIDNDGWLRSGDIAYYDNDGHFYIVDRLKSLIKYKGYQVAPAEIEGILLQHPYIVDAGVTGIPDEAAGELPAAGVVVQTGKYLNEQIVQDYVASQVSTAKWLRGGVKFLDEIPKGSTGKIDRKVLRQMLEKHTNGHHHHHHHH | 4701610 | 1.21 | 479613 | 0.74 | 5480500 | 1.06 |
